Here are results for 13 molecules from patent publication US20130315914A1 (NOVIMMUNE, published 2013).

In assay [1] the target is T1, soluble histidine-tagged form of human TLR4/MD2 complex (human, UniProt Q9Y6Y9 19-160). Briefly: competitive ELISA; 15C1 reference EC50 divided by variant EC50. Here is the method:
(§1) The VH and VL cDNA sequences in their appropriate expression vectors were transfected into mammalian cells using the Fugene 6 Transfection Reagent (Roche, Basel, Switzerland). Briefly, Peak cells were cultured in 6-well plates at a concentration of 6×10⁵ cells per well in 2 mL culture media containing fetal bovine serum. The expression vectors, encoding the candidate VH and VL sequences, were co-transfected into the cells using the Fugene 6 Transfection Reagent according to manufacturer's instructions. One day following transfection, the culture media was aspirated, and 3 mL of fresh serum-free media was added to cells and cultured for three days at 37° C. Following three days culture period, the supernatant was harvested for IgG purified on protein G-Sepharose 4B fast flow columns (Sigma, St. Louis, Mo.) according to manufacturer's instructions. Briefly, supernatants from transfected cells were incubated overnight at 4° C. with ImmunoPure (G) IgG binding buffer (Pierce, Rockford Ill.). Samples were then passed over Protein G-Sepharose 4B fast flow columns and the IgG consequently purified using elution buffer. The eluted IgG fraction was then dialyzed against PBS and the IgG content quantified by absorption at 280 nm. Purity and IgG integrity were verified by SDS-PAGE. Relative binding potency of 1E11 variants was assessed by competitive ELISA. Briefly, 15C1 antibody was coated overnight in a 96-well Maxisorp plate and then blocked with PBS-BSA. The 15C1 reference antibody and affinity matured variants of 1E11 were added to the plate at a fixed concentration and a 3.5-fold serial dilution of the samples was performed. Then, soluble histidine-tagged form of human TLR4/MD2 complex was added to the plate at a fixed concentration. After incubation one hour at 37° C., the plate was washed and a solution of Penta-His-HRP antibody was distributed, this step was followed by an additional incubation time of one hour at 37° C. Finally, the plate was washed and TMB was added for colorimetric revelation, the enzymatic reaction is stopped by H₂SO₄ solution. The results were determined according to the absorbance at 450 nm. The relative binding potency was calculated by dividing the reference EC₅₀ with affinity matured variants EC₅₀ (Table 8).

For assay [2], the target named is T2, cynomolgus monkey TLR4 expressed on stably transfected CHO-K1 cells (cynomolgus monkey, UniProt Q9TSP2 24-826 (Papio anubis entry)).
T2 construct: Transfected alone; also called CHO cells expressing the cynomolgus monkey TLR4
T2 chain: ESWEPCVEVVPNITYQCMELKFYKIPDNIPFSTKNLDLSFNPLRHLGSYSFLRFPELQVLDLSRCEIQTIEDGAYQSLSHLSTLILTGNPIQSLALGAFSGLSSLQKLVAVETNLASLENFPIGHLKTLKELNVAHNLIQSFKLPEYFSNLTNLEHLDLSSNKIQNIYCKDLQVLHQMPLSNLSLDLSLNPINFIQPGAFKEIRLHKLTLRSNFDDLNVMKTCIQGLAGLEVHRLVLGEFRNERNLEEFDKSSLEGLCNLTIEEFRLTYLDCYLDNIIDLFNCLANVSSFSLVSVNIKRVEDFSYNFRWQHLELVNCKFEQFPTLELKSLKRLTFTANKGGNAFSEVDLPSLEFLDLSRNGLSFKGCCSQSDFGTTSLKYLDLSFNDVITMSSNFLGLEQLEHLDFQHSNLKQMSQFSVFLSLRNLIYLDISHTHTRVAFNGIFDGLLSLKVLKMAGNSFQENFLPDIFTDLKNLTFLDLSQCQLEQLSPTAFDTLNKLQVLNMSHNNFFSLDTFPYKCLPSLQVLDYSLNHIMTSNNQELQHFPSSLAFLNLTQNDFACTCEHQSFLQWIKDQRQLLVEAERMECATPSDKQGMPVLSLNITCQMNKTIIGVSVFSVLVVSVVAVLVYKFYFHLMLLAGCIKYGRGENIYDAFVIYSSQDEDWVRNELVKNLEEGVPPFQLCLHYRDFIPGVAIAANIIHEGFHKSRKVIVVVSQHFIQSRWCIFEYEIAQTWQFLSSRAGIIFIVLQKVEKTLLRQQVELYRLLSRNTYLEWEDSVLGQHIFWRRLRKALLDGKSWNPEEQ
Put plainly: summary grade (species binding potential); assay not given.

For assay [3], the target named is T1, soluble histidine-tagged form of human …. Put plainly: competitive ELISA; coated 15C1 as competitor, soluble His-tagged human TLR4/MD2, Penta-His-HRP. Here is the method: as §1

T1 sequence (Q9Y6Y9 19-160, one chain of several): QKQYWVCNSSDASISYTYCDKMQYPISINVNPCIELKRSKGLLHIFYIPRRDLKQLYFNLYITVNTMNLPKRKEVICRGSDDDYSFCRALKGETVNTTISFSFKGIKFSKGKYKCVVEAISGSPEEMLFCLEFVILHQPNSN

B1: 1E11.C2E1 antibody (IgG1) (antibody, V domains shown)
VH: QVQLQESGPGLVKPSDTLSLTCAVSGYPIRFGYSWHWIRQPPGKGLEWMGYIHYSGYTDFNPSLKTRITISRDTSKNQFSLKLSSVTAVDTAVYYCARKDSGNYFPYWGQGTLVTVSS
VL: EIVLTQSPDFQSVTPKEKVTITCRASQSISDHLHWYQQKPDQSPKLLIKYASHAISGVPSRFSGSGSGTDFTLTINSLEAEDAATYYCQQGNDFPVTFGGGTKVEIK
For B1, in assay [1], the “Relative binding potency increase” value came to 29 fold. The binding result in assay [2] is recorded as “binds”. In assay [3], the EC50 worked out at 0.021 µg/mL.

B2: 1E11 antibody (IgG1 reformatted) (antibody, V domains shown)
VH: QVQLQESGPGLVKPSDTLSLTCAVSGYSITGGYSWHWIRQPPGKGLEWMGYIHYSGYTDFNPSLKTRITISRDTSKNQFSLKLSSVTAVDTAVYYCARKDSGNYFPYWGQGTLVTVSS
VL: EIVLTQSPDFQSVTPKEKVTITCRASQSISDHLHWYQQKPDQSPKLLIKYASHAISGVPSRFSGSGSGTDFTLTINSLEAEDAATYYCQQGHSFPLTFGGGTKVEIKR
notes: also called 1E11 Mab
For B2, in assay [2], the binding result was “binds”.

B3: 1E11.C2E5 antibody (IgG1) (antibody, V domains shown)
VH: QVQLQESGPGLVKPSDTLSLTCAVSGYPIRFGYSWHWIRQPPGKGLEWMGYIHYSGYTDFNPSLKTRITISRDTSKNQFSLKLSSVTAVDTAVYYCARKDSGNYFPYWGQGTLVTVSS
VL: EIVLTQSPDFQSVTPKEKVTITCRASQSISDHLHWYQQKPDQSPKLLIKYASHAISGVPSRFSGSGSGTDFTLTINSLEAEDAATYYCQQGYEFPLTFGGGTKVEIK
As to B3, the “Relative binding potency increase” value in assay [1] came out at 36 fold. For the same molecule, in assay [2], the binding result is reported as “binds”. The EC50 in assay [3] amounted to 0.017 µg/mL.

B4: 1E11.E1 antibody (IgG1) (antibody, V domains shown)
VH: QVQLQESGPGLVKPSDTLSLTCAVSGYSITGGYSWHWIRQPPGKGLEWMGYIHYSGYTDFNPSLKTRITISRDTSKNQFSLKLSSVTAVDTAVYYCARKDSGNYFPYWGQGTLVTVSS
VL: EIVLTQSPDFQSVTPKEKVTITCRASQSISDHLHWYQQKPDQSPKLLIKYASHAISGVPSRFSGSGSGTDFTLTINSLEAEDAATYYCQQGNDFPVTFGGGTKVEIK
On to B4, for which the “Relative binding potency increase” value in assay [1] was determined as 4 fold. Moreover, the binding result in assay [2] is “binds”. Further, in assay [3], the half-maximal effective concentration (EC50) was determined as 0.157 µg/mL.

B5: 1E11.E2 antibody (IgG1) (antibody, V domains shown)
VH: QVQLQESGPGLVKPSDTLSLTCAVSGYSITGGYSWHWIRQPPGKGLEWMGYIHYSGYTDFNPSLKTRITISRDTSKNQFSLKLSSVTAVDTAVYYCARKDSGNYFPYWGQGTLVTVSS
VL: EIVLTQSPDFQSVTPKEKVTITCRASQSISDHLHWYQQKPDQSPKLLIKYASHAISGVPSRFSGSGSGTDFTLTINSLEAEDAATYYCQQGYDEPFTFGGGTKVEIK
Take B5: the “Relative binding potency increase” value in assay [1] stood at 2 fold. In addition, the binding result in assay [2] is given as “binds”. Further, the EC50 in assay [3] turned out to be 0.315 µg/mL.

B6: 1E11.E4 antibody (IgG1) (antibody, V domains shown)
VH: QVQLQESGPGLVKPSDTLSLTCAVSGYSITGGYSWHWIRQPPGKGLEWMGYIHYSGYTDFNPSLKTRITISRDTSKNQFSLKLSSVTAVDTAVYYCARKDSGNYFPYWGQGTLVTVSS
VL: EIVLTQSPDFQSVTPKEKVTITCRASQSISDHLHWYQQKPDQSPKLLIKYASHAISGVPSRFSGSGSGTDFTLTINSLEAEDAATYYCQQGYDYPLTFGGGTKVEIK
With B6, the “Relative binding potency increase” value in assay [1] is 5 fold. For the same molecule, the binding result in assay [2] is “binds”. Further, the half-maximal effective concentration (EC50) in assay [3] was found to be 0.13 µg/mL.

B7: 1E11.C2E4 antibody (IgG1) (antibody, V domains shown)
VH: QVQLQESGPGLVKPSDTLSLTCAVSGYPIRFGYSWHWIRQPPGKGLEWMGYIHYSGYTDFNPSLKTRITISRDTSKNQFSLKLSSVTAVDTAVYYCARKDSGNYFPYWGQGTLVTVSS
VL: EIVLTQSPDFQSVTPKEKVTITCRASQSISDHLHWYQQKPDQSPKLLIKYASHAISGVPSRFSGSGSGTDFTLTINSLEAEDAATYYCQQGYDYPLTFGGGTKVEIK
With B7, the “Relative binding potency increase” value in assay [1] was found to be 40 fold. Moreover, the binding result in assay [2] was “binds”. Further, in assay [3], the concentration giving a half-maximal response (EC50) stood at 0.015 µg/mL.

B8: 1E11.C3 antibody (IgG1) (antibody, V domains shown)
VH: QVQLQESGPGLVKPSDTLSLTCAVSGYPIRHGYSWHWIRQPPGKGLEWMGYIHYSGYTDFNPSLKTRITISRDTSKNQFSLKLSSVTAVDTAVYYCARKDSGNYFPYWGQGTLVTVSS
VL: EIVLTQSPDFQSVTPKEKVTITCRASQSISDHLHWYQQKPDQSPKLLIKYASHAISGVPSRFSGSGSGTDFTLTINSLEAEDAATYYCQQGHSFPLTFGGGTKVEIK
For the molecule B8, the “Relative binding potency increase” value in assay [1] worked out at 5 fold. Moreover, the binding result in assay [2] is given as “binds”. Besides, in assay [3], the EC50 stood at 0.119 µg/mL.

B9: 1E11.C1 antibody (IgG1 reformatted) (antibody, V domains shown)
VH: QVQLQESGPGLVKPSDTLSLTCAVSGFPIRYGYSWHWIRQPPGKGLEWMGYIHYSGYTDFNPSLKTRITISRDTSKNQFSLKLSSVTAVDTAVYYCARKDSGNYFPYWGQGTLVTVSS
VL: EIVLTQSPDFQSVTPKEKVTITCRASQSISDHLHWYQQKPDQSPKLLIKYASHAISGVPSRFSGSGSGTDFTLTINSLEAEDAATYYCQQGHSFPLTFGGGTKVEIKR
notes: VH 67 / VL 4 are the variable domains
Turning to B9, the “Relative binding potency increase” value in assay [1] came out at 12 fold. For the same molecule, in assay [3], the EC50 stood at 0.052 µg/mL.

B10: 1E11.C5 antibody (IgG1) (antibody, V domains shown)
VH: QVQLQESGPGLVKPSDTLSLTCAVSGYPIWGGYSWHWIRQPPGKGLEWMGYIHYSGYTDFNPSLKTRITISRDTSKNQFSLKLSSVTAVDTAVYYCARKDSGNYFPYWGQGTLVTVSS
VL: EIVLTQSPDFQSVTPKEKVTITCRASQSISDHLHWYQQKPDQSPKLLIKYASHAISGVPSRFSGSGSGTDFTLTINSLEAEDAATYYCQQGHSFPLTFGGGTKVEIK
As for B10, the “Relative binding potency increase” value in assay [1] is 7 fold. The binding result in assay [2] is listed as “binds”. Further, the concentration giving a half-maximal response (EC50) in assay [3] stood at 0.087 µg/mL.

B11: 1E11.E5 antibody (IgG1) (antibody, V domains shown)
VH: QVQLQESGPGLVKPSDTLSLTCAVSGYSITGGYSWHWIRQPPGKGLEWMGYIHYSGYTDFNPSLKTRITISRDTSKNQFSLKLSSVTAVDTAVYYCARKDSGNYFPYWGQGTLVTVSS
VL: EIVLTQSPDFQSVTPKEKVTITCRASQSISDHLHWYQQKPDQSPKLLIKYASHAISGVPSRFSGSGSGTDFTLTINSLEAEDAATYYCQQGYEFPLTFGGGTKVEIK
On to B11, for which the “Relative binding potency increase” value in assay [1] was 4 fold. In assay [2], the binding result is “binds”. Moreover, the half-maximal effective concentration (EC50) in assay [3] came to 0.152 µg/mL.

B12: 1E11.E3 antibody (IgG1) (antibody, V domains shown)
VH: QVQLQESGPGLVKPSDTLSLTCAVSGYSITGGYSWHWIRQPPGKGLEWMGYIHYSGYTDFNPSLKTRITISRDTSKNQFSLKLSSVTAVDTAVYYCARKDSGNYFPYWGQGTLVTVSS
VL: EIVLTQSPDFQSVTPKEKVTITCRASQSISDHLHWYQQKPDQSPKLLIKYASHAISGVPSRFSGSGSGTDFTLTINSLEAEDAATYYCQQGYDFPLTFGGGTKVEIK
In the case of B12, the “Relative binding potency increase” value in assay [1] was found to be 5 fold. In assay [2], the binding result was “binds”. Besides, the concentration for a half-maximal effect (EC50) in assay [3] was 0.126 µg/mL.

B13: 1E11.C6 antibody (IgG1) (antibody, V domains shown)
VH: QVQLQESGPGLVKPSDTLSLTCAVSGYPIGGGYSWHWIRQPPGKGLEWMGYIHYSGYTDFNPSLKTRITISRDTSKNQFSLKLSSVTAVDTAVYYCARKDSGNYFPYWGQGTLVTVSS
VL: EIVLTQSPDFQSVTPKEKVTITCRASQSISDHLHWYQQKPDQSPKLLIKYASHAISGVPSRFSGSGSGTDFTLTINSLEAEDAATYYCQQGHSFPLTFGGGTKVEIK
Regarding B13, in assay [1], the “Relative binding potency increase” value was found to be 10 fold. Also, in assay [2], the binding result was “binds”. Moreover, the EC50 in assay [3] is 0.061 µg/mL.
